Holding throughout (assay): ITC
A general note: Isothermal titration calorimetry measures the heat released or taken up as one component is titrated into another.

Series [1] deals with N-BRDT(1) K41S K41S (Homo sapiens) (UniProt Q58F21). As to conditions: histone H4K5acK8ac (H4 A15C ligation); EMSA: 20 mM Tris pH 7.5, 100 mM NaCl, 5 mM DTT, 0.5 mM EDTA, 4 C; ITC: 20 mM Tris pH 8.0, 150 mM NaCl, 1 mM EDTA, 1 mM TCEP, 20 C; NMR at 34 C. For orientation: A gel shift assay detects complexes by their altered migration in electrophoresis.
Series [2] addresses N-BRDT(1) 3KS K37S;K41S;K45S (Homo sapiens) (UniProt Q58F21). The following applies: histone H4K5acK8ac (H4 A15C ligation); EMSA: 20 mM Tris pH 7.5, 100 mM NaCl, 5 mM DTT, 0.5 mM EDTA, 4 C; ITC: 20 mM Tris pH 8.0, 150 mM NaCl, 1 mM EDTA, 1 mM TCEP, 20 C; NMR at 34 C.
The next series has as its target N-BRDT(1) (Homo sapiens) (UniProt Q58F21). The following applies: EMSA: 20 mM Tris pH 7.5, 100 mM NaCl, 5 mM DTT, 0.5 mM EDTA, 4 C, ITC: 20 mM Tris pH 8.0, 150 mM NaCl, 1 mM EDTA, 1 mM TCEP, 20 C, NMR at 34 C.
Series [3] deals with N-BRDT(1) 3KE K37E;K41E;K45E (Homo sapiens) (UniProt Q58F21). The following applies: histone H4K5acK8ac (H4 A15C ligation); EMSA: 20 mM Tris pH 7.5, 100 mM NaCl, 5 mM DTT, 0.5 mM EDTA, 4 C; ITC: 20 mM Tris pH 8.0, 150 mM NaCl, 1 mM EDTA, 1 mM TCEP, 20 C; NMR at 34 C.

With “TCGGGGGCCGCCCTGGAGAATCCCGGTGCCGAGGCCGCTCAATTGGTCGTAGACAGCTCTAGCACCGCTTAAACGCACGTACGCGCTGTCCCCCGCGTTTTAACCGCCAAGGGGATTACTCCCTAGTCTCCAGGCACGTGTCAGATATATACATCCTGTGCATGTAC / CCGAGTACATGCACAGGATGTATATATCTGACACGTGCCTGGAGACTAGGGAGTAATCCCCTTGGCGGTTAAAACGCGGGGGACAGCGCGTACGTGCGTTTAAGCGGTGCTAGAGCTGTCTACGACCAATTGAGCGGCCTCGGCACCGGGATTCTCCAGGGCGGCCC [H4K5acK8ac nucleosome (167 bp Widom)]”, the Kd in series [1] came out at 7 µM; in series [2], 9 µM; in the series with N-BRDT(1) (Homo sapiens) (histone H4K5acK8ac (H4 A15C ligation)), 2 µM. Besides, the binding signal (fold reduced affinity vs WT) in series [3] came to 5.
As for “TCGGGGGCCGCCCTGGAGAATCCCGGTGCCGAGGCCGCTCAATTGGTCGTAGACAGCTCTAGCACCGCTTAAACGCACGTACGCGCTGTCCCCCGCGTTTTAACCGCCAAGGGGATTACTCCCTAGTCTCCAGGCACGTGTCAGATATATACATCCTGTGCATGTAC / CCGAGTACATGCACAGGATGTATATATCTGACACGTGCCTGGAGACTAGGGAGTAATCCCCTTGGCGGTTAAAACGCGGGGGACAGCGCGTACGTGCGTTTAAGCGGTGCTAGAGCTGTCTACGACCAATTGAGCGGCCTCGGCACCGGGATTCTCCAGGGCGGCCC [chimeric H3-H4K5acK8ac nucleosome (167 bp Widom)]”, the equilibrium dissociation constant (Kd) with N-BRDT(1) (Homo sapiens) (H4K5acK8ac tail ligated to H3 core, WT H2A, H2B, H4) turned out to be 5 µM.

What is called Kd is a measure of binding affinity in units of concentration. Higher therefore signals a looser complex.

These data come from publication PMC5187433, “A bromodomain–DNA interaction facilitates acetylation-dependent bivalent nucleosome recognition by the BET protein BRDT” (Nature Communications, 2016).
